Assay results reported in paper PMC11077054.

Columns and labels:
nYFP-CmoNAC1 (pumpkin) [1] = molecular target: nYFP-CmoNAC1 (pumpkin)
nYFP-CmoNAC1 (pumpkin) [2] = molecular target: nYFP-CmoNAC1 (pumpkin); remark: listed apart in the source

CmoDREB2A-cYFP (natural protein)
LUC/RLU ratio of the reporter with the NACbs of the CmoNCED6 promoter in tobacco: CmoNAC1 + CmoDREB2A against CmoNAC1 alone (nYFP-CmoNAC1 (pumpkin) [1]): 87% | LUC/RLU ratio of the reporter with the NACbs of the CmoRBOHD1 promoter in tobacco: CmoNAC1 + CmoDREB2A against CmoNAC1 alone (nYFP-CmoNAC1 (pumpkin) [1]): 67% | LUC/RLU ratio of the reporter with the NACbs of the CmoAKT1;2 promoter in tobacco: CmoDREB2A + CmoNAC1 against CmoNAC1 alone (nYFP-CmoNAC1 (pumpkin) [2]): 99% | LUC/RLU ratio of the reporter with the NACbs of the CmoHKT1;1 promoter in tobacco: CmoDREB2A + CmoNAC1 against CmoNAC1 alone (nYFP-CmoNAC1 (pumpkin) [2]): 107%
